Source: the supplement of paper PMC9170038

System: K4 kissing-loop RNA reporter
Experiment: apparent KD of K4 kissing-loop reporter; higher = weaker reporter binding
Details: Eterna round: R107
Protocol: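 RNA-MaP round R107: designed RNA switches with theophylline, tryptophan, arginine or FMN aptamers are transcribed on-chip within common flanks. They are titrated with a labelled K4 kissing-loop RNA reporter in RNA-MaP buffer (100 mM Tris pH 7.5, 80 mM KCl, 4 mM MgCl2), without ligand or with the indicated ligand. Median apparent KD per design.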

[1] = input ligand: theophylline 20 uM
[2] = input ligand: tryptophan 2.4 mM
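Further: bound reporter read as fluorescence of individual clusters on recovered sequencing chips by microscopy, with normalized cluster intensities fitted with a binding model.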

Sequence	apparent KD of K4 kissing-loop reporter (input ligand: FMN 200 uM) [nM]	apparent KD of K4 kissing-loop reporter (input ligand: arginine 13.2 mM) [nM]	apparent KD of K4 kissing-loop reporter (input ligand: none) [nM]	apparent KD of K4 kissing-loop reporter [1] [nM]	apparent KD of K4 kissing-loop reporter [2] [nM]
CCAUCGCUAUUCGAUACCAGUCAUAAAAUCUUUGGUUUAAUAAAGGAGUGAUGUUCCCAAGACCCUUGGCAGCGAAUAGUGAUGG [Theophylline B K4 8]	186	185	176	197	190
CCAUGAGGAUAAGAUGAUAUCAUAACAGAAGGAGCGAGUGAUAACUCAGGUAGGUCGCUGAAUUUAUCGAGUGAUGUUCGAUGAA [Same State Arginine A GF11]	194	164	193	179	164
CCAUUCAUCAGAAGGAGCGUCAAGUGAUGCUAUCCAGUGAUGUUGGAUAGCACGGAACAGUGACAGGUAGGUCGCUGAUGAGAGC [Arg B SS t8]	121	106	115	95.7	131
CCAUUCUGUUACGAUACCAGUCAAAUAUAUUUGAUCAAUACCCUCGCCGAGUGAUGUUCGGACCCUUGGCAGCGUCUGGGACAGG [ccdfmullin]	537	561	710	544	596
CCCAAAAUAUGCAGUGAUGUUGCAACCGAUACCAGUAUCGAAAGAUACCCUUGGCAGCGGAAAACCGCUACGUAAUUUAAAAGGG [Ex Theophylline A K4 17]	308	318	311	603	254
CCCAAAAUAUGCAGUGAUGUUGCAACUGAUACCAGUAUCGAAAGAUACCCUUGGCAGCGGAAAACCGCUACGUAAUUUAAAAGGG [Ex Theophylline A K4 18]	200	292	255	340	187
CCCAAGGGCGAACCGGUAUGAUCGACGGAUACCAGAGGCGAAAGCCUCCCUUGGCAGCCGGCUGUAGUGAUGUUACACUGGUUCU	139	98.9	168	186	143
CCCGGUCCACGAAGGAGCGCCGUGCAGUGAUGUUGCAGUUAGAUCCAGUGAUGUUUGGGCCGGCAGGUAGGUCGCGUGGCCCGGG [Excusion Arginine B GF 24]	199	197	250	197	188
CCCUAAAUAUGCAGUGAUGUUGCAACUGAUACCAGUAUCGAAAGAUACCCUUGGCAGCGGAAAACCGCUACGUAAUUUAAUAGGG [Ex Theophylline A K4 20]	294	393	387	402	285
CCCUCACGAGUGAUGUUCGUAGGGUACAGUCAGGAUAUCAUGCGGUUGAGAAGGGACAGAAAGGGCGGCCACGGGUUGCUCAUUU [Issogeso]	200	352	343	492	530
CCCUCACGAGUGAUGUUCGUAGGGUACAGUCAGGAUAUCAUGCGGUUGAGAAGGGACAGAGAAGGCGGCCACGGGUUGCUUAUCU [Ussoat]	215	258	342	388	308
CCGACUGCAGGAAGGAGCGGCGGUUGGAGUGAUGUUCCGGGUAGUGAUGUUACCAAACUCCGCCAGGUAGGUCGCCUGUUGCUCG [Same State Arginine B GF10]	151	112	165	179	144
CCGAGCCUGACGUAAGUCAGGCUCUGCGAGCGAGGACCGGUACGGCCGCCACUCGGUGCAGUGAUGUUGCAUGGCCGCAAGGCCG [#2 Exclusion - Tryptophan A Attempt #23 (HarryS)]	293	274	235	235	351
CCGCCGGUCGGAAGGAGCGCACGCCAGAGUGAUGUUCUGGCGCGGGCACUUUAUGCCCGCGUGCAGGUAGGUCGCCGAUUCUGGC [Mabema]	464	426	445	446	417
CCGCCGGUCGGAAGGAGCGCACGCCAGAGUGAUGUUCUGGCGCGGGCAUUUUGUGCCCGCGUGCAGGUAGGUCGCCGAUUCUGGC [Quxeorti]	602	414	427	452	498
CCGCUACCCUCAGGAUAUUAAAUAUUAGUGAUGUUAGUAAACCGAUGGCGAAAGCCAUCGGUAUGUUGAGAAGGGAGGGUAGCGG [whbob_SS_FMNB__2th197]	403	1810	2240	891	880
CCGCUGCCCUCAGGAUAUUAAGUAUUAGUGAUGUUAGUAAACCGAUGGCGAAAGCCAUCGGUAUGUUGAGAAGGGAGGGUAGCGG [whbob_SS_FMNB__2th199]	370	627	662	1140	550
